What was measured:
[1] = molecular target: T1, HER3 on HER3-expressing tumor cells (human, UniProt P21860 20-1342); test: flow cytometry, FaDu cells; FaDu cells; Table 3 experiment, alongside scDb hu225x3-43-Fc
T1 construct: Endogenous HER3 of human tumor cell lines (MCF-7, FaDu, BT474, A431, NCI-N87, A549, SKBR-3, Colo205, HCT-116, A375 and melanoma lines); also called cellular receptor HER3; cell surface expressed HER3

[2] = molecular target: T1, HER3 on HER3-expressing tumor cells; test: flow cytometry on NCI-N87 cells, PE-labeled secondary antibody; the small table prints no unit, the axis is Concentration [nM] [panel NCI-N87]
[3] = molecular target: T2, mouse HER3-Fc fusion protein (extracellular region of mouse HER3 fused to a human Fc region) (mouse, UniProt Q61526 20-641); test: ELISA, coated mouse HER3-Fc, serial dilution of IgG 3-43, absorption at 450 nm
T2 construct: extracellular domain; not shown: human Fc region

[4] = molecular target: T3, HER3-Fc fusion protein (Fc fusion protein of the extracellular domain of human HER3, limits not stated at the … (human, UniProt P21860 20-643)); test: quartz crystal microbalance (Attana), IgG 3-43 on chip, HER3-Fc as analyte (bivalent)
T3 construct: also called wild-type HER3-Fc; human HER3-Fc fusion protein; not shown: human Fc region

[5] = molecular target: T1, HER3 on HER3-expressing tumor cells; test: flow cytometry, BT474 cells
[6] = molecular target: T1, HER3 on HER3-expressing tumor cells; test: flow cytometry, NCI-N87 cells
[7] = molecular target: T1, HER3 on HER3-expressing tumor cells; test: flow cytometry on A549 cells, PE-labeled secondary antibody; the small table prints no unit, the axis is Concentration [nM] [panel A549]
[8] = molecular target: T4, HER3 fragment aa 359-587 Fc fusion protein (human, UniProt P21860 359-587); test: ELISA, coated HER3-Fc fragments
T4 construct: not shown: IgG1 Fc part

[9] = molecular target: T5, HER3 fragment aa 20-550 Fc fusion protein (DI-III plus part of DIV) (human, UniProt P21860 20-550); test: ELISA, coated HER3-Fc fragments
T5 construct: not shown: IgG1 Fc part

[10] = molecular target: T6, HER3 fragment aa 329-550 Fc fusion protein (human, UniProt P21860 329-550); test: ELISA, coated HER3-Fc fragments
T6 construct: not shown: IgG1 Fc part

[11] = molecular target: T1, HER3 on HER3-expressing tumor cells; test: flow cytometry on BT474 cells, PE-labeled secondary antibody; the small table prints no unit, the axis is Concentration [nM] [panel BT474]
[12] = molecular target: T7, HER3-His (HER3 aa 27-599 of the extracellular domain fused C-terminally with a hexahistidyl-tag) (human, UniProt P21860 27-599); test: quartz crystal microbalance (Attana), IgG 3-43 on chip, HER3-his as analyte
T7 construct: also called soluble His-tagged HER3; His-tagged extracellular domain of HER3; not shown: C-terminal hexahistidyl-tag

[13] = molecular target: T1, HER3 on HER3-expressing tumor cells; test: flow cytometry on A431 cells, PE-labeled secondary antibody; the small table prints no unit, the axis is Concentration [nM] [panel A431]
[14] = molecular target: T1, HER3 on HER3-expressing tumor cells; test: flow cytometry, FaDu cells
[15] = molecular target: T1, HER3 on HER3-expressing tumor cells; test: flow cytometry, FaDu cells (text; Table 3 prints 0.30)
[16] = molecular target: T1, HER3 on HER3-expressing tumor cells; test: flow cytometry, MCF-7 cells
[17] = molecular target: T1, HER3 on HER3-expressing tumor cells; test: flow cytometry, FaDu cells; FaDu cells
[18] = molecular target: T1, HER3 on HER3-expressing tumor cells; test: flow cytometry on MCF-7 cells, PE-labeled secondary antibody; the small table prints no unit, the axis is Concentration [nM] [panel MCF7]
[19] = molecular target: T1, HER3 on HER3-expressing tumor cells; test: flow cytometry, A431 cells
[20] = molecular target: T1, HER3 on HER3-expressing tumor cells; test: flow cytometry, A549 cells
[21] = molecular target: T8, Fc fusion protein containing HER3 DI-DII and a short part of DIII (aa 20-358) (human, UniProt P21860 20-358); test: ELISA, coated HER3-Fc fragments at 10 µg/ml, anti-human Fab-HRP
T8 construct: not shown: IgG1 Fc part

HER3 DIV-Fc (aa 532-643) = molecular target: T9, HER3 DIV-Fc (aa 532-643) (human, UniProt P21860 532-643); test: as above
T9 construct: not shown: IgG1 Fc part

[22] = molecular target: T10, HER3 fragment aa 359-643 Fc fusion protein (part of DIII and the entire DIV) (human, UniProt P21860 359-643); test: as above
T10 construct: not shown: IgG1 Fc part

[23] = molecular target: T11, Fc fusion protein containing HER3 DI-DIII (aa 20-531; lacking DIV) (human, UniProt P21860 20-531); test: as above
T11 construct: also called DI-DIII Fc; not shown: IgG1 Fc part

[24] = molecular target: T12, HER3 fragment aa 395-643 Fc fusion protein (part of DIII and the entire DIV) (human, UniProt P21860 395-643); test: as above
T12 construct: not shown: IgG1 Fc part

[25] = molecular target: T13, HER3 fragment aa 458-643 Fc fusion protein (part of DIII and the entire DIV) (human, UniProt P21860 458-643); test: as above
T13 construct: not shown: IgG1 Fc part

HER3-ECD protein = molecular target: T14, HER3-ECD protein (Homo sapiens (Human), UniProt P21860 20-643); test: ELISA, immobilized HER3-ECD
T14 construct: also called receptor-ECD protein

[26] = molecular target: T1, HER3 on HER3-expressing tumor cells; test: flow cytometry, MCF-7 cells; MCF-7 cells
[27] = molecular target: T1, HER3 on HER3-expressing tumor cells; test: flow cytometry, SKBR-3 cells; SKBR-3 cells
[28] = molecular target: T1, HER3 on HER3-expressing tumor cells; test: flow cytometry on FaDu cells, PE-labeled secondary antibody; the small table prints no unit, the axis is Concentration [nM] [panel FADU]
[29] = molecular target: T3, HER3-Fc fusion protein (Fc fusion …); test: quartz crystal microbalance (Attana), IgG 3-43 on chip, HER3-Fc as analyte

T2 sequence (Q61526 20-641): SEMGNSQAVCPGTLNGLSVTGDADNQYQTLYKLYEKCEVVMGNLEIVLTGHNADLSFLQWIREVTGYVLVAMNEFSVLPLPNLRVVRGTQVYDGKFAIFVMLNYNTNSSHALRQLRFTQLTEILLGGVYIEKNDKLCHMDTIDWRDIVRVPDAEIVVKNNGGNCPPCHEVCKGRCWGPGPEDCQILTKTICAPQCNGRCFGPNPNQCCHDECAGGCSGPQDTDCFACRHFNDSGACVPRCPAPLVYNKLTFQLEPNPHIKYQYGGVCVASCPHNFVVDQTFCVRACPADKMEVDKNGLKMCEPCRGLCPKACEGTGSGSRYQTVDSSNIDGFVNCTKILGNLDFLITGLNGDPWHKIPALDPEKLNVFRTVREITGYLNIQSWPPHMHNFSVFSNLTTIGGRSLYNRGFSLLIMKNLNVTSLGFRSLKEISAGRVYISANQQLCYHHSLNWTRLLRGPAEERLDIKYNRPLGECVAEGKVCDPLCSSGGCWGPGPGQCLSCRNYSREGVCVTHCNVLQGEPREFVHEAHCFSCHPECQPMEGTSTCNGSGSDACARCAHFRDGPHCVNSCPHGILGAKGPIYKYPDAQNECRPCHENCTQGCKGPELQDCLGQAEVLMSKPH

B1: IgG 3-43 (antibody)
heavy: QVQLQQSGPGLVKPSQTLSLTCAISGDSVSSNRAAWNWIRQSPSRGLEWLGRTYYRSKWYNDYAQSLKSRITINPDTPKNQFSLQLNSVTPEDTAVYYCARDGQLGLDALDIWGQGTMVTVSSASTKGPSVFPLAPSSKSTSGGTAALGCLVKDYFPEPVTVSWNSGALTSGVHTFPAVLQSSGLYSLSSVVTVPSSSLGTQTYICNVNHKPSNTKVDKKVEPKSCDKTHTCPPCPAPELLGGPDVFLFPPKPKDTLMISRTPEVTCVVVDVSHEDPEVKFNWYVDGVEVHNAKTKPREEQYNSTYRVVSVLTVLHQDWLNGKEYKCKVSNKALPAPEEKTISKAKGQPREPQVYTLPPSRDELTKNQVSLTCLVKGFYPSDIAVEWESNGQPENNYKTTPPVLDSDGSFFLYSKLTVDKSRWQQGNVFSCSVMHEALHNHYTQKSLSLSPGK
light: QAGLTQPPAVSVAPGQTASITCGRDNIGSRSVHWYQQKPGQAPVLVVYDDSDRPAGIPERFSGSNYENTATLTISRVEAGDEADYYCQVWGITSDHVVFGGGTKLTVLCGQPKAAPSVTLFPPSSEELQANKATLVCLISDFYPGAVTVAWKADSSPVKAGVETTTPSKQSNNKYAASSYLSLTPEQWKSHRSYSCQVTHEGSTVEKTVAPTECS
notes: also called 3-43-IgG; 3-43 IgG
How did the EC50 [1] turn out when B1 was run?
The EC50 was 0.3 nM.

And the EC50 [2]?
Its EC50 is 0.0266 nM.

What about the “EC50 (read off the curve)” value [3] of the same binder?
Its value is ~3 nM.

What about the Kd [4] of the same binder?
Its Kd is 0.22 nM.

And the EC50 [5]?
Its EC50 is 0.074 nM.

And the EC50 [6]?
The EC50 was 0.027 nM.

And the EC50 [7]?
Its EC50 is 0.0536 nM.

Does B1 bind [8]?
Result: no binding

Does B1 bind [9]?
Result: no binding

Does B1 bind [10]?
Result: no binding

And the EC50 [11]?
The EC50 was 0.0743 nM.

What about the koff [12] of the same binder?
Its koff is 0.00696 s⁻¹.

And the kon [12]?
The kon was 622000 M⁻¹ s⁻¹.

And the EC50 [13]?
Its EC50 is 0.0445 nM.

And the EC50 [14]?
The EC50 was 0.03 nM.

What about the EC50 [15] of the same binder?
The EC50 was 0.006 nM.

What about the EC50 [16] of the same binder?
Its EC50 is 0.037 nM.

And the EC50 [17]?
Its EC50 is 0.003 nM.

What about the EC50 [18] of the same binder?
Its EC50 is 0.0365 nM.

What about the EC50 [19] of the same binder?
Its EC50 is 0.045 nM.

What about the EC50 [20] of the same binder?
The EC50 was 0.053 nM.

Does B1 bind [21]?
Result: no binding

Does B1 bind (HER3 DIV-Fc (aa 532-643))?
Result: no binding

Does B1 bind [22]?
Result: no binding

Does B1 bind [23]?
Result: no binding

Does B1 bind [24]?
Result: no binding

Does B1 bind [25]?
Result: no binding

And the EC50 (HER3-ECD protein)?
The EC50 was 0.33 nM.

And the EC50 [26]?
The EC50 was 0.021 nM.

What about the EC50 [27] of the same binder?
Its EC50 is 0.022 nM.

And the EC50 [28]?
Its EC50 is 0.0302 nM.

And the koff [29]?
Its koff is 0.000103 s⁻¹.

And the kon [29]?
Its kon is 468000 M⁻¹ s⁻¹.

— patent US20190194350A1 (UNIVERSITAT STUTTGART, published 2019)
